From the nanobody polyreactivity screen of Harvey et al. (2022)

Assay: yeast display, Sf9 membrane polyspecificity reagent, FACS + sequencing; frameworks hold sequencing errors
Procedure, shortened: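 Polyreactivity labels are assigned by the sorting gate from which each nanobody was recovered. The gates were low and high (top ~1%), set on anti-HA fluorescence for expression and streptavidin fluorescence for reagent binding. Before sorting, galactose-induced (36–48 hours) yeast display cells were stained for 1 hour at 4 °C with 10% biotinylated, detergent-solubilized Sf9 membrane reagent.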

Question: For “QVQLVESGGGLVQAGGSLRLSCAASGSTFGANALGWYRQAPGKERELVAAITGGSTFYADSVKGRFTISRDNAKNTVYLQMNSLKPEDTSVYYCAVDYTYSYVDYWSEYDYWGQGTQVTVSS”, which “polyreactivity (PSR sort gate)” value is on record?
Answer: low polyreactivity

Question: For “QVQLVESGGGLVQAGGSLRLSCAASGSTFGANAMGWYRQAPGKEREFVAAISRSGVRTYYADSVKGRFTISRDNAKNTVYLKLNSLKPEDTAVYYCAADGYWWTYTRYDYWGQGTQVTVSS”, which “polyreactivity (PSR sort gate)” value is on record?
Answer: low polyreactivity

Question: Which “polyreactivity (PSR sort gate)” value does the source give for “QVQLVESGGGLVQAGGSLRLSCAASGSTFGANAMGWYRQAPGKEREFVAAISRSGVRTYYADSVKGRFTISRDNAKNTVYLQMNSLKPEDTAVYYCAADGYWWTYKGQYDYWGQGTQVTVSS” here?
Answer: low polyreactivity

Question: Which “polyreactivity (PSR sort gate)” value does the source give for “QVQLVESGGGLVQAGGSLRLSCAASGSTFGANPMGWYRQAPGKEREFVAAISGSGTTTYYADSVKGRFTISRDNAKNTVYLQMNSLKTEDTAVYYCAKTRKAHWLEYWGQGTQVTVSS” here?
Answer: low polyreactivity

Question: With “QVQLVESGGGLVQAGGSLRLSCAASGSTFGDNAMGWYRQAPGKERELVAVITSDTSTYYADSVKGRFTISRDNAKNTVYLQMNSLKPEDTAVYYCAADWGGLWFWYEYWGQGTQVTVSS” as the sequence, how does the “polyreactivity (PSR sort gate)” value read?
Answer: low polyreactivity

Question: For “QVQLVESGGGLVQAGGSLRLSCAASGSTFGDNAMVWYRQAPGKERELVAAITFRDGITYYADSVKGRITISRDNAKNSVYLQMNSLKPEDTAFYYCAKGVHRRWYYGYGYWGQGTQVTVSS”, which “polyreactivity (PSR sort gate)” value is on record?
Answer: high polyreactivity

Question: With “QVQLVESGGGLVQAGGSLRLSCAASGSTFGDNTMGWYRQAPGKERELVASISKSGGSTYYADSVKGRFTISRDNAKNTVYLQMNSLKPEDTAVYYCNRVTHYIRFDYWGQGTQVTVSS” as the sequence, how does the “polyreactivity (PSR sort gate)” value read?
Answer: low polyreactivity

Question: Which “polyreactivity (PSR sort gate)” value does the source give for “QVQLVESGGGLVQAGGSLRLSCAASGSTFGDYAMGWYRQAPGKERELVAAMSRGGSTYYADSVKGRFTISRDNAKNTVYLQMNSLKPEDTAVYYCNKDEGYSASPDGSTFDYWGQGTQVTVSS” here?
Answer: low polyreactivity

Question: Which “polyreactivity (PSR sort gate)” value does the source give for “QVQLVESGGGLVQAGGSLRLSCAASGSTFGEYAMGWYRQAPGKERELVASITFSAGSTDYADSVKGRFTISRDNAKNTVFLQMNSLKPEDTSVYYCAADGWWPWEYEYWGQGTQVTVSS” here?
Answer: low polyreactivity

Question: Which “polyreactivity (PSR sort gate)” value does the source give for “QVQLVESGGGLVQAGGSLRLSCAASGSTFGFNAMGWYRQAPGKERELLPLFWSGGSTYYADSVKGRFTISRDNAKNTVYLQMNSLKPEDTAVYYCNKDSPPITRYDYWGQGTQVTVSS” here?
Answer: low polyreactivity

Question: With “QVQLVESGGGLVQAGGSLRLSCAASGSTFGFYAMGWYRQAPGKERELVAAISGRGGSTYYADSVKGRFTISRDNAKNTVYLQMNSLKPEDTAVYYCNADWQDDLAGYVVDYWGLGTQVTVSS” as the sequence, how does the “polyreactivity (PSR sort gate)” value read?
Answer: low polyreactivity

Question: For “QVQLVESGGGLVQAGGSLRLSCAASGSTFGFYAMGWYRQAPGKERELVAAISWNDGSTYYADSVKGRFTISRDNAKNTVYLQMNSLKPEDTAVYYCATEYSLWYTRDWQRYEYWGQGTQVTVSS”, which “polyreactivity (PSR sort gate)” value is on record?
Answer: high polyreactivity

Question: With “QVQLVESGGGLVQAGGSLRLSCAASGSTFGGNAMGWYRQAPGKERELVAAISSSGGSTYYADSVKGRFTISRDNAKNTVYLLMNSLKPEDTAVYYCNADDGYGQVHSISTYEMDYWGQGTQVTVSS” as the sequence, how does the “polyreactivity (PSR sort gate)” value read?
Answer: low polyreactivity

Question: For “QVQLVESGGGLVQAGGSLRLSCAASGSTFGGNAMGWYRQAPGKERELVAAISSSGGSTYYADSVKGRFTISRDNAKYTVYLQMNSLKPEDSAVYYCAALYHWTYDYWGLGTQVTVSS”, which “polyreactivity (PSR sort gate)” value is on record?
Answer: low polyreactivity

Question: Which “polyreactivity (PSR sort gate)” value does the source give for “QVQLVESGGGLVQAGGSLRLSCAASGSTFGGNAMGWYRQAPGKERELVAVISKRGGSTYYADSVKGRFTISRDNAKNTVYLQMNSLKPEDTAVYYCAAGYFIRTRSRYRYDYWGQGTQVTVSS” here?
Answer: high polyreactivity

Question: Which “polyreactivity (PSR sort gate)” value does the source give for “QVQLVESGGGLVQAGGSLRLSCAASGSTFGGYAKGWYRQAPGKERELVAAMSQSGTRTYYADSVKGRFTISRDKAKNTVYLQMNSLKPEDTAVYYCAAEKRFRKYDNWGQGTQVTVSS” here?
Answer: high polyreactivity

Question: Which “polyreactivity (PSR sort gate)” value does the source give for “QVQLVESGGGLVQAGGSLRLSCAASGSTFGGYAMGWYRQAPGKERELVAAISSGGSTYYADSVKGRFTISRDNAKNTVYLQMNSLKPEDTAVYYCAAEGIYFILWYGYVEYDYWGQGTQVTVSS” here?
Answer: low polyreactivity

Question: For “QVQLVESGGGLVQAGGSLRLSCAASGSTFGGYTMGWYRQAPGKERELVAAITSRGGTTYYADSVKGRFTISRDNAKNTVYLQMNSLKPEDTAVYYCNRVSRYFYGFYWGQGTQVTVSS”, which “polyreactivity (PSR sort gate)” value is on record?
Answer: high polyreactivity

Question: Which “polyreactivity (PSR sort gate)” value does the source give for “QVQLVESGGGLVQAGGSLRLSCAASGSTFGHYARGWYRQATGKERELVAAISFTGARTYYADSVKGRFTISRDNAKNTVYLQMNSLKPEDTAVYYCIARGDYRISDYWGQGTQVTVSS” here?
Answer: high polyreactivity

Question: With “QVQLVESGGGLVQAGGSLRLSCAASGSTFGINAMGWYRQAPGKERELVASITRRGGSTYYADSVKGRFTISRDNAKNTVYLRMNSLKPEDTAVYYCNKTYRYGTPLYDYWGQGTQVTVSS” as the sequence, how does the “polyreactivity (PSR sort gate)” value read?
Answer: high polyreactivity

Question: With “QVQLVESGGGLVQAGGSLRLSCAASGSTFGINAMGWYRQAPGKERELVAVIRAGGGRTYYADSVKGRFTISRDNAKNTVYLQMNSLKPEDTAVYYCAARYYSRYVSVYASSKTGYDYWGQGTQVTVSS” as the sequence, how does the “polyreactivity (PSR sort gate)” value read?
Answer: high polyreactivity

Question: With “QVQLVESGGGLVQAGGSLRLSCAASGSTFGIYSMGWYRQAPGKERELVAAISVRGGRTYYADSVKGRFTISRDNAKNTVYLQMNSLKPEDTAVYYCAPTWYWGNDYWGQGTQVTVSS” as the sequence, how does the “polyreactivity (PSR sort gate)” value read?
Answer: low polyreactivity

Question: With “QVQLVESGGGLVQAGGSLRLSCAASGSTFGKYVMGWYRQAPGKERELVAAISRSGGSTYYADSVKGRFTISRDNAKNTVYFQMNSLKPEDTAVYYCATVGYGYDYWGQGTQVTVSS” as the sequence, how does the “polyreactivity (PSR sort gate)” value read?
Answer: high polyreactivity

Question: With “QVQLVESGGGLVQAGGSLRLSCAASGSTFGLYAMGWYRQAPGKEREFVAAISWRTGSTYYADSVKGRFTISRDNAKNTVFLQMYSLKPEDTAVYYCAARAYGTIIHGYWGQGTHVTVSS” as the sequence, how does the “polyreactivity (PSR sort gate)” value read?
Answer: high polyreactivity

Question: With “QVQLVESGGGLVQAGGSLRLSCAASGSTFGLYAMGWYRQAPGKERELVAAISSGGSTYYADSVKGRFTISRDNAKNTVYLQMNSLKPEDTAVYYCATGYWAYTIEYYYWGQGTQVTVSS” as the sequence, how does the “polyreactivity (PSR sort gate)” value read?
Answer: low polyreactivity

Question: Which “polyreactivity (PSR sort gate)” value does the source give for “QVQLVESGGGLVQAGGSLRLSCAASGSTFGLYAMGWYRQAPGKERELVAAITGRASSTYYADSVKGRFTISRDNAKNTVYLQMNSLKPEDTAVYDCAASGFGQISNPRRDYWGQGTQVTVSS” here?
Answer: high polyreactivity

Question: For “QVQLVESGGGLVQAGGSLRLSCAASGSTFGLYARGWYRQAPGKERELVAAISGGRTYYADSVKGRFTISRDNAKNTVYLQMNSLKPEDTAVYYCAADYNYYWGQGTQVTVSS”, which “polyreactivity (PSR sort gate)” value is on record?
Answer: high polyreactivity

Question: For “QVQLVESGGGLVQAGGSLRLSCAASGSTFGLYGMGWYRQAPGKERELVAAITYSGGGTYYADSVKGRFTISRDNAKNTVYLQMNSLKPEDTAVYYCAAEYYSSITGWYYYWGQGTQVTVSS”, which “polyreactivity (PSR sort gate)” value is on record?
Answer: low polyreactivity

Question: For “QVQLVESGGGLVQAGGSLRLSCAASGSTFGNNAMGWYRQAAGKERELVAGINSGGSTTYADSVKGRFTISRDNAKNTVYLQMNSLKPEDTAVYYCAAVYYYYSWYSKHYYWGQGTQVTVSS”, which “polyreactivity (PSR sort gate)” value is on record?
Answer: low polyreactivity

Question: For “QVQLVESGGGLVQAGGSLRLSCAASGSTFGNNAMGWYRQAPGKERELVATIDDTTVSTNYADSVKGRFTISRDNAKNTVYLQMNSLKPEDTAVYYCAADDVDGSPYDYWGQGTQVTVSS”, which “polyreactivity (PSR sort gate)” value is on record?
Answer: low polyreactivity

Question: For “QVQLVESGGGLVQAGGSLRLSCAASGSTFGNNAMGWYRQAPGKERELVATIDDTTVSTNYADSVKWRFTISRDNAKNTVYLQMNSLKPEDTAVYYCAAPVGNYGSFDYWGQGTQVTVSS”, which “polyreactivity (PSR sort gate)” value is on record?
Answer: low polyreactivity

Question: For “QVQLVESGGGLVQAGGSLRLSCAASGSTFGPNGMGWYRQAPGKERELVARIDRIGGGTYYADSVKGRFTISRDNAKNTVYLQMNSLKPEDTAVYSCAADGPSPFIQGYAKGDYWGQGTQVTVSS”, which “polyreactivity (PSR sort gate)” value is on record?
Answer: low polyreactivity

Question: With “QVQLVESGGGLVQAGGSLRLSCAASGSTFGPNTMGWYRQAPGKERELVAAISRAGRTYYADSVKGRFTISRDNAKNTVYLQMNSLKPEDTAVYYCNAGRSYHWRAGGEYDYWGQGTQVTVSS” as the sequence, how does the “polyreactivity (PSR sort gate)” value read?
Answer: low polyreactivity

Question: Which “polyreactivity (PSR sort gate)” value does the source give for “QVQLVESGGGLVQAGGSLRLSCAASGSTFGPYAMAWYRQAPGKERELVAAIDKSGGSTYYADSVKGRFTLSRDNAKNTVYLQMNSLKPEDTAVYYCAADLVRYFGYYDYDSWGQGTQVTVSS” here?
Answer: low polyreactivity

Question: Which “polyreactivity (PSR sort gate)” value does the source give for “QVQLVESGGGLVQAGGSLRLSCAASGSTFGPYAMGWYRPAPGKERELVAAITSSGGTTYYADSVKGRFTISRDNAKNTVYLQMNSLKPEDTAVYYCAVDYYGKVGDDYWGQGTQVTVSS” here?
Answer: low polyreactivity

Question: Which “polyreactivity (PSR sort gate)” value does the source give for “QVQLVESGGGLVQAGGSLRLSCAASGSTFGPYAMGWYRQAPGKERELVAAISRRGTSTYYADSVKGRFTISRDNAKNTVYLQMISLKPEDTAVYYCAADRLLYGGGREYWGQGTQVTVSS” here?
Answer: high polyreactivity

Question: Which “polyreactivity (PSR sort gate)” value does the source give for “QVQLVESGGGLVQAGGSLRLSCAASGSTFGPYAMGWYRQAPGKERELVAAITWNGGSTYYADSVKGRFTISRDNAKNSVYLQMNSLKPEDTAVSFCNAVGSYGDFGYWGQGTQVTVSS” here?
Answer: high polyreactivity

Question: With “QVQLVESGGGLVQAGGSLRLSCAASGSTFGPYAMGWYRQAPGKERELVADITVSDGSTYYADSVKGRFTISRDNAKNTVYLQMNSLKPEHTAVYYCAAEIYYSFGYWGQGTQVTVSS” as the sequence, how does the “polyreactivity (PSR sort gate)” value read?
Answer: low polyreactivity

Question: For “QVQLVESGGGLVQAGGSLRLSCAASGSTFGPYVMRWYRQAPGKERELVAGISSSGGSTYYADSVKGRFTISRDNAKNTVYLQMNSLKPEDTAVYYCAAVWTTGWIDSYTAWYSYEYWGQGTQVTVSS”, which “polyreactivity (PSR sort gate)” value is on record?
Answer: low polyreactivity

Question: For “QVQLVESGGGLVQAGGSLRLSCAASGSTFGRNTMGWYRQAPGKERELVAAISKSGGSTRYADSVKGRFTISRDNAKNTVYLQMNSVKPEDTAVYYCAARVYSLGYGGDYWGQGTQVTVSS”, which “polyreactivity (PSR sort gate)” value is on record?
Answer: high polyreactivity

Question: With “QVQLVESGGGLVQAGGSLRLSCAASGSTFGRSVMGWYRQAPGNVRELVGAISRRGGSTYYADSVKGRFTISRDNAKKTVYIQLHSRKPEDPAVYYSPVDGARSGEPYDSMDYWGQGTHVTVSS” as the sequence, how does the “polyreactivity (PSR sort gate)” value read?
Answer: high polyreactivity
